Two molecules from publication PMC10747088, “Self-Penetrating Oligonucleotide Derivatives: Features of Self-Assembly and Interactions with Serum and Intracellular Proteins” can be followed below.

For this data set, the target named is human serum albumin (HSA) (Homo sapiens, UniProt P02768 25-609). Briefly: fluorescence titration (FAM); PBS; 10 uM oligomer; HSA Kd: 10 uM oligomer, PBS, 30 min, 25 C (Methods) or 37 C (Figure S7); HSA EMSA: TA/TAM buffer, 1 h, native 8% PAAG at 37 C; Ku/PARP1 EMSA: 50 mM Tris-HCl pH. The note with it: protein: commercial, label: 5'-FAM, single strand, micelles.
Sequence of human serum albumin (HSA) (P02768 25-609): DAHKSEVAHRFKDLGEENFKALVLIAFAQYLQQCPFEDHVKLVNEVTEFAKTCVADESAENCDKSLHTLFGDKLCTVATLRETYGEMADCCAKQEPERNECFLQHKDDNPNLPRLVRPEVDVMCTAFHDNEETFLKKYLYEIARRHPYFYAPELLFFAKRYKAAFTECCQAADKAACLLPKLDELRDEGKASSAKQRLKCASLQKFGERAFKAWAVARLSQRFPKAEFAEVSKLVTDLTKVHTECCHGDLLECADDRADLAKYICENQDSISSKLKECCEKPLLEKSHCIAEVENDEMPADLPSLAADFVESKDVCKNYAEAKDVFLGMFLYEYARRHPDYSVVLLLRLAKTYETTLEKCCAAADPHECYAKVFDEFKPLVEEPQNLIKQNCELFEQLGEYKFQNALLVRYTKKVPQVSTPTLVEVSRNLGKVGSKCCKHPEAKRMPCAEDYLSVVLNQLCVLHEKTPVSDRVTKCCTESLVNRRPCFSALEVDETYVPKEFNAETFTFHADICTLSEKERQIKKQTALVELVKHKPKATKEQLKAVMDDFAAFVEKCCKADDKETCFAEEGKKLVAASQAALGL

B1: FAM-TZD16 (FAM-TZ16) (ssDNA)
DNA: CTGACTATGAAGTATT
modifications: triazinyl phosphoramidate with two dodecyl groups at the last internucleotide phosphate (T15*T16)
In the case of B1, the affinity, expressed as Kd, was 1.5 ± 0.1 µM.

B2: FAM-TZD17 (FAM-TZ17) (ssDNA)
DNA: AGTCTCGACTTGCTATT
modifications: triazinyl phosphoramidate with two dodecyl groups at the last internucleotide phosphate (T16*T17)
In the case of B2, for the setting “can form weak hairpin or self-dimers”, binding was put at a Kd of 1.2 ± 0.2 µM.
